Test results published in US9695426B2, “Biofuel production by recombinant microorganisms” (The Regents of the University of California, priority 2007, dated 2017).

B1: Kivd: 2-keto-acid decarboxylase Kivd from Lactococcus lactis (protein, listed as Lactococcus lactis)
chain: MYTVGDYLLDRLHELGIEEIFGVPGDYNLQFLDQIISRKDMKWVGNANELNASYMADGYARTKKAAAFLTTFGVGELSAVNGLAGSYAENLPVVEIVGSPTSKVQNEGKFVHHTLADGDFKHFMKMHEPVTAARTLLTAENATVEIDRVLSALLKERKPVYINLPVDVAAAKAEKPSLPLKKENSTSNTSDQEILNKIQESLKNAKKPIVITGHEIISFGLEKTVSQFISKTKLPITTLNFGKSSVDEALPSFLGIYNGKLSEPNLKEFVESADFILMLGVKLTDSSTGAFTHHLNENKMISLNIDEGKIFNESIQNFDFESLISSLLDLSEIEYKGKYIDKKQEDFVPSNALLSQDRLWQAVENLTQSNETIVAEQGTSFFGASSIFLKPKSHFIGQPLWGSIGYTFPAALGSQIADKESRHLLFIGDGSLQLTVQELGLAIREKINPICFIINNDGYTVEREIHGPNQSYNDIPMWNYSKLPESFGATEERVVSKIVRTENEFVSVMKEAQADPNRMYWIELILAKEDAPKVLKKMGKLFAEQNKS
B2: PDC6: 2-keto-acid decarboxylase Pdc6 from S. cerevisiae (protein, listed as Saccharomyces cerevisiae)
chain: MSEITLGKYLFERLKQVNVNTIFGLPGDFNLSLLDKIYEVDGLRWAGNANELNAAYAADGYARIKGLSVLVTTFGVGELSALNGIAGSYAEHVGVLHVVGVPSISAQAKQLLLHHTLGNGDFTVFHRMSANISETTSMITDIATAPSEIDRLIRTTFITQRPSYLGLPANLVDLKVPGSLLEKPIDLSLKPNDPEAEKEVIDTVLELIQNSKNPVILSDACASRHNVKKETQKLIDLTQFPAFVTPLGKGSIDEQHPRYGGVYVGTLSKQDVKQAVESADLILSVGALLSDFNTGSFSYSYKTKNVVEFHSDYVKVKNATFLGVQMKFALQNLLKVIPDVVKGYKSVPVPTKTPANKGVPASTPLKQEWLWNELSKFLQEGDVIISETGTSAFGINQTIFPKDAYGISQVLWGSIGFTTGATLGAAFAAEEIDPNKRVILFIGDGSLQLTVQEISTMIRWGLKPYLFVLNNDGYTIEKLIHGPHAEYNEIQTWDHLALLPAFGAKKYENHKIATTGEWDALTTDSEFQKNSVIRLIELKLPVFDAPESLIKQAQLTAATNAKQ
modifications: CDS (1)..(1692)
notes: 2-keto-acid decarboxylase Pdc6 from S. cerevisiae
B3: CimA1: CimA variant with three amino acid substitutions (Ile47Val, Lys435Asn, Val441Ala) (protein, UniProt Q58787 1-491, looked up, variant I47V K435N V441A)
(R)-citramalate synthase CimA: MMVRIFDTTLRDGEQTPGVSLTPNDKLEIAKKLDELGVDVIEAGSAVTSKGEREGIKLITKEGLNAEICSFVRALPVDIDAALECDVDSVHLVVPTSPIHMKYKLRKTEDEVLETALKAVEYAKEHGLIVELSAEDATRSDVNFLIKLFNEGEKVGADRVCVCDTVGVLTPQKSQELFKKITENVNLPVSVHCHNDFGMATANTCSAVLGGAVQCHVTVNGIGERAGNASLEEVVAALKILYGYDTKIKMEKLYEVSRIVSRLMKLPVPPNKAIVGDNAFAHEAGIHVDGLIKNTETYEPIKPEMVGNRRRIILGKHSGRKALKYKLDLMGINVSDEQLNKIYERVKEFGDLGKYISDADLLAIVREVTGKLVEEKIKLDELTVVSGNKITPIASVKLHYKGEDITLIETAYGVGPVDAAINAVRKAISGVADINLVEYRAEAIGGGTDALIEVVVKLRKGTEIVEVRKSDADIIRASVDAVMEGINMLLN
B4: ARO10: 2-keto-acid decarboxylase Aro10 from S. cerevisiae (protein, listed as Saccharomyces cerevisiae)
chain: MAPVTIEKFVNQEERHLVSNRSATIPFGEYIFKRLLSIDTKSVFGVPGDFNLSLLEYLYSPSVESAGLRWVGTCNELNAAYAADGYSRYSNKIGCLITTYGVGELSALNGIAGSFAENVKVLHIVGVAKSIDSRSSNFSDRNLHHLVPQLHDSNFKGPNHKVYHDMVKDRVACSVAYLEDIETACDQVDNVIRDIYKYSKPGYIFVPADFADMSVTCDNLVNVPRISQQDCIVYPSENQLSDIINKITSWIYSSKTPAILGDVLTDRYGVSNFLNKLICKTGIWNFSTVMGKSVIDESNPTYMGQYNGKEGLKQVYEHFELCDLVLHFGVDINEINNGHYTFTYKPNAKIIQFHPNYIRLVDTRQGNEQMFKGINFAPILKELYKRIDVSKLSLQYDSNVTQYTNETMRLEDPTNGQSSIITQVHLQKTMPKFLNPGDVVVCETGSFQFSVRDFAFPSQLKYISQGFFLSIGMALPAALGVGIAMQDHSNAHINGGNVKEDYKPRLILFEGDGAAQMTIQELSTILKCNIPLEVIIWNNNGYTIERAIMGPTRSYNDVMSWKWTKLFEAFGDFDGKYTNSTLIQCPSKLALKLEELKNSNKRSGIELLEVKLGELDFPEQLKCMVEAAALKRNKK
modifications: CDS (1)..(1908)
notes: 2-keto-acid decarboxylase Aro10 from S. cerevisiae

Key:
[1] = tested on: E. coli culture expressing kivd; experiment: Alcohol productions with the supply of 2-keto acids; format: cell-based; conditions: 2-keto acid added to E. coli culture expressing kivd
Excerpt: The addition of various 2-keto acids (see Table 13) to the E. coli culture expressing kivd confirmed the specific production of the corresponding alcohols by 2- to 23-fold.

[2] = tested on: endogenous 2-keto acids in E. coli; experiment: Alcohol productions with KDC and ADH in E. coli; format: cell-based; conditions: KDC over-produced with Adh2 in E. coli; minimal media with 0.2 M glucose
Excerpt: An enzyme in this alcohol production strategy is KDC, which is common in plants, yeasts and fungi but less so in bacteria. The aldehydes produced can then be converted to alcohols by an Adh, which is commonly found in many organisms. Some of the KDCs have broad-substrate ranges, while others are more specific. To test the capability of the endogenous 2-keto acids as a substrate for KDC in E. coli, five KDCs including Pdc6, Aro10, Thi3, from S. cerevisiae, Kivd from Lactococcus lactis, and Pdc from C. acetobutylycum were over-produced with alcohol dehydrogenase 2 (Adh2) of S. cerevisiae. E. coli cultures expressing these foreign genes were grown in a minimal media with 0.2 M glucose.

KS145 = experiment: 1-Propanol and 1-butanol production with the selected CimA mutants (citramalate pathway); format: cell-based, E. coli; conditions: 30° C. for 40 h
Procedure: Medium and cultivation for 1-propanol and 1-butanol production. M9 medium containing 36 g/L glucose, 5 g/L yeast extract, 100 μg/ml ampicillin, 30 μg/ml kanamycin and 1000th dilution of Trace Metal Mix A5 (2.86 g H3BO3, 1.81 g MnCl2.4H2O, 0.222 g ZnSO4.7H2O, 0.39 g Na2MoO4.2H2O, 0.079 g CuSO4.5H2O, 49.4 mg Co(NO3)2.6H2O per liter water) was used for cell growth. Preculture in test tubes containing 3 ml of medium was performed at 37° C. overnight on a rotary shaker (250 rpm). Overnight culture was diluted 1:100 into 20 ml of fresh medium in a 250 ml screw cap conical flask. Cells were grown at 37° C. for 3 hr, followed by adding 0.1 mM IPTG. Cultivation was performed at 30° C. on a rotary shaker (250 rpm). Gas chromatography-flame ionization detector and high-performance liquid chromatography analyses were performed.
The citramalate pathway was then used to enhance the production of 1-propanol and 1-butanol (FIG. 13). An E. coli strain (KS145) auxotrophic for L-isoleucine, leucine, and valine (ΔilvI and ΔilvB). was transformed with pSA63 (or other plasmids containing variants of cimA) and pSA55 (PLlacO1::kivd-ADH2). The deletions of ilvI and ilvB (FIG. 13) were introduced for two reasons. First, the deletions eliminated the native substrate, 2-ketoisovalerate, for the leuABCD pathway, thus reducing the competitive substrate inhibition. Second, these deletions eliminated the production of 2-keto-3-methyl-valerate and 2-keto-4-methyl-pentanoate, which are competing substrates for Kivd. The strain expressing the wild-type cimA gene (KS145/pSA63/pSA55) produced 302 mg/liter 1-propanol and 18 mg/liter 1-butanol after 40 h (FIG. 60). KS145 with pSA55 only, where Kivd utilizes endogenous 2-keto acids, produced 40 mg/liter 1-propanol and 10 mg/liter 1-butanol under the same condition. KS145 without pSA55 and pSA63 produced neither 1-propanol nor 1-butanol (FIG. 60). Note that the yeast extract was added to the medium to boost the cell density.
1-Propanol and 1-butanol production was tested with the selected CimA variants in KS145 by replacing pSA63 with corresponding plasmids (Table 19) containing various cimA mutants. […] The production of 1-propanol and 1-butanol from the strain with CimA2 increased 3.9- and 4.3-fold, respectively, compared to the strain with the wild-type CimA.

[3] = KS145 with pSA55 and pSA63 (cimA-leuABCD) or its variations
[4] = KS145 with pSA55 and pSA63 variations

Molecule | Product 3-methyl-1-butanol [1] | Product 2-phenylethanol [1] | Product 1-propanol [2] | Product 2-methyl-1-butanol [2] | Product 3-methyl-1-butanol [2] | Product isobutanol [2] | other results
CCC(C)C(=O)C(=O)O (centres unmarked) [2-keto-3-methyl-valerate] |  |  |  |  |  |  | Product 2-methyl-1-butanol [1]: 5284 µM
CC(C)CC(=O)C(=O)O [2-keto-4-methyl-pentanoate] | 3756 µM |  |  |  |  |  | 
CC(C)C(=O)C(=O)O [2-keto-isovalerate] |  | 109 µM |  |  |  |  | Product isobutanol [1]: 10016 µM
CCCC(=O)C(=O)O [2-ketovalerate] | 52 µM | 66 µM |  |  |  |  | Product 1-butanol [1]: 3926 µM
O=C(O)C(=O)Cc1ccccc1 [phenylpyruvate] | 105 µM | 7269 µM |  |  |  |  | Product 1-butanol [1]: 23 µM; Product 1-propanol [1]: 8 µM; Product isobutanol [1]: 64 µM
B1 |  |  | 520 µM | 766 µM | 1495 µM | 5242 µM | Product 1-butanol [2]: 220 µM; Product 2-phenylethanol [2]: 324 µM
B2 |  |  | 125 µM | 56 µM | 92 µM | 260 µM | 
B3 |  |  |  |  |  |  | Production of 1-Butanol (KS145; [3]): 22 mg/L; Production of 1-Propanol (KS145; [3]): 695 mg/L; 1-Butanol change (fold) relative to the strain containing wild-type CimA (KS145; [4]): 1.2 fold; 1-Propanol change (fold) relative to the strain containing wild-type CimA (KS145; [4]): 2.3 fold
B4 |  |  | 290 µM | 652 µM | 1099 µM | 2094 µM | Product 1-butanol [2]: 95 µM; Product 2-phenylethanol [2]: 469 µM
